Consider 29 sequences from the supplement of paper PMC10567573.

± gives the standard deviation.

This data set can be described thus: protein stability index of a GFP-peptide fusion (GPS, HEK-293T) (PSI 1-6); higher = more stable. The note with it: c terminus: a fixed tail appended.
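Note: 24-mer peptide tiles fused after GFP, lentivirally expressed, FACS-sorted into six equal bins by GFP/DsRed ratio, decoded by Illumina sequencing, PSI is the read-weighted mean bin number.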

Turning to IELQAQHSMRNSLESTLAETEARY [KRT36], the protein stability index is, setting by setting: (treatment: DMSO) 4.38 ± 0.15; (treatment: MLN4924 1 uM, 8 h) 4.23 ± 0.23.
The corresponding values for IESAHRSRIKVLETSYQQREERLR [FBF1] are 3.85 ± 0.15 and 3.82 ± 0.33.
In the same order, the values of IEVNGENVEDASHEEVVEKVKKSG [PDZK1] are 5.63 ± 0.16 and 5.34 ± 0.38.
The corresponding values for IFQEKHVNLLHIESRKSKRRNSEF [TPH1] are 3.06 ± 0.25 and 3.27 ± 0.28.
Sequence IFQMVIICLMCVHSLERAGSKQYS [SMG5] came in with a protein stability index (treatment: DMSO) of 3.21 ± 0.28 and a protein stability index (treatment: MLN4924 1 uM, 8 h) of 3.27 ± 0.48.
The corresponding values for IGKLLYLEDFFVMSDYRGFGIGSE [SAT1] are 2.85 ± 0.33 and 2.9 ± 0.81.
In the same order, the values of IHSREKRGDSVKVENPSTASHSLS [ZNF649] are 4.97 ± 0.26 and 5.22 ± 0.15.
The corresponding values for IHTGIKPHQCSECGRAFSRKSLLV [ZNF649] are 2.56 ± 0.37 and 2.18 ± 0.4.
Take IIEVLSNALSKSSAPPITPECRQV [CHGB]: the protein stability index was found to be 2.29 ± 0.54 (treatment: DMSO) and 2.32 ± 0.22 (treatment: MLN4924 1 uM, 8 h).
For IKAWMDRYEEANNNQYSEGVQREA [KMT2E], the protein stability index runs as follows: (treatment: DMSO) 3.77 ± 0.14; (treatment: MLN4924 1 uM, 8 h) 4.05 ± 0.28.
The corresponding values for ILDTAGQAEFTAMRDQYMRAGEGF [RIT1] are 3.44 ± 0.29 and 3.6 ± 0.23.
Take ILKQLIADVTLDPETAHPNLVLSE [TRIM39]: the protein stability index came out at 2.67 ± 0.085 (treatment: DMSO) and 2.81 ± 0.29 (treatment: MLN4924 1 uM, 8 h).
In the same order, the values of ILTSQPGKEVVKQLEEGLKDTDLA [M1AP] are 5.05 ± 0.28 and 5.17 ± 0.17.
In the same order, the values of IPGKVIDEIYRVLRYVNSTRAPQR [FBXO28] are 2.2 ± 0.21 and 2.41 ± 0.28.
Regarding IPQQQGMRPPMPPHGQYGGHHQGM [ZNF207], the protein stability index is 3.71 ± 0.24 (treatment: DMSO) and 3.88 ± 0.11 (treatment: MLN4924 1 uM, 8 h).
In the same order, the values of IQASAGVISKKAKVKVPQKTAGKE [ZNF75A] are 4.6 ± 0.16 and 4.79 ± 0.27.
In the case of IQKAYDELRLQSEAFKKHSLDLLS [CCDC89], the protein stability index by setting is: (treatment: DMSO) 2.68 ± 0.31; (treatment: MLN4924 1 uM, 8 h) 2.91 ± 0.23.
In the same order, the values of IRARELQNIYKCIMLKNISQDERL [IQUB] are 2.25 ± 0.57 and 2.15 ± 0.54.
The corresponding values for IRGPAGNNDCRIYVGNLPPDIRTK [SRSF1] are 3.43 ± 0.25 and 3.38 ± 0.27.
In the same order, the values of IRNRGYNLIYRSTRHLKRLALMIQ [TMEM192] are 3.02 ± 0.16 and 2.97 ± 0.38.
Turning to ISLFFLIIYMGSFMLMLLVLGIQV [CDS1], the protein stability index was 3.18 ± 0.23 (treatment: DMSO) and 3.33 ± 0.11 (treatment: MLN4924 1 uM, 8 h).
For ISSIEAQLSELRSEMECQNQEYKM [KRT13], the protein stability index (treatment: DMSO) was 4.76 ± 0.23 and the protein stability index (treatment: MLN4924 1 uM, 8 h) is 4.69 ± 0.29.
ISVILPTVHEVDIFRCFCPVFLHS [DENND6A]: the protein stability index reads like this: (treatment: DMSO) 3.07 ± 0.19; (treatment: MLN4924 1 uM, 8 h) 3 ± 0.56.
The corresponding values for ITNVDLREYLSEEVQAVHKNTTYD [USP39] are 4.2 ± 0.24 and 4.17 ± 0.19.
In the same order, the values of ITTIGYGHAAPGTDAGKAFCMFYA [KCNK9] are 2.9 ± 0.49 and 2.8 ± 0.56.
As for ITYPPGVKEISDKISKEEMVRRLK [PDS5B], the protein stability index by setting is: (treatment: DMSO) 3.49 ± 0.36; (treatment: MLN4924 1 uM, 8 h) 3.73 ± 0.44.
In the same order, the values of KALWEDKTSLWEEENALWEEERAF [CCDC70] are 3.79 ± 0.18 and 3.87 ± 0.14.
As for KARVKPPEGYDVVAVYPNAKVELV [PDLIM4], the protein stability index amounted to 3.02 ± 0.18 (treatment: DMSO) and 3.31 ± 0.28 (treatment: MLN4924 1 uM, 8 h).
For the sequence KCASDIFQASNPYLPTRGGTTMAS [TRIM55], the protein stability index (treatment: DMSO) was 2.89 ± 0.22 and the protein stability index (treatment: MLN4924 1 uM, 8 h) turned out to be 2.86 ± 0.16.
